Data from doi:10.1101/2020.12.03.410779.

Molecular target: human Retromer complex (Vps35-Vps29-Vps26A) (human) (UniProt Q96QK1)
Test: ITC

Substance: TBC domain of human TBC1D5 (from UniProt Q92609 1-795) (domain or fragment)
- Kd: 370 nM
